Biological target: Staphylococcal enterotoxin A (SEA) (Staphylococcus aureus, UniProt P0A0L2 25-257)
Sequence (P0A0L2 25-257): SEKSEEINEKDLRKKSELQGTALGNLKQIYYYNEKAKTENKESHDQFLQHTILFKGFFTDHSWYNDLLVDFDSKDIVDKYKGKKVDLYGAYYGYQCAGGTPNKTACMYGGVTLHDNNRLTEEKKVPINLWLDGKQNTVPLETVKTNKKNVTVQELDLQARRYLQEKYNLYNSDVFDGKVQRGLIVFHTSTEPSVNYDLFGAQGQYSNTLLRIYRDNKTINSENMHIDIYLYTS

B1: C6G5C6-apt (AgNC template) (structured_DNA)
DNA: CCCCCCGGGGGCCCCCCAGCAGCACAGAGGTCAGATGTACTTATGCATTTCCTCCCACGATCTTATTTGAGAGTGACCCTATGCGTGCTACCGTGAA
Question: Does B1 bind?
Answer: binds
